In patent US20220243196, “[…] METHOD OF APTAMER AND IMMUNOASSAY USING THE APTAMER” (SB BIOSCIENCE CO., LTD., published 2022):

Columns and labels:
HIV-1 p24 = HIV-1 p24 (Human immunodeficiency virus 1, UniProt P04591 P04591:133-363); test: ELONA; antibody-antigen-aptamer sandwich with RPA readout
SARS-CoV-2 NP = SARS-CoV-2 NP (SARS-CoV-2, UniProt P0DTC9 P0DTC9:1-419); test: ELONA
Ebola NP = Ebola NP (Ebola virus, UniProt P18272 P18272:1-739); test: ELONA

B1: HIV-1 p24 aptamer (ssDNA)
DNA: AGATACTGCCATTCATTGCATCGAGCACGCGACTGATGAGGATGGTCTAGTAGCTGGGGTCGAGTACTAAGCTATGTGTCGA
B1: binds (HIV-1 p24).

B2: SARS-CoV-2 NP aptamer (ssDNA)
DNA: ATCCAGAGTGACGCAGCAAACCCAAGCAAACTACCTCTATACCCTTCGACCTTCATCATGGACACGGTGGCTTAGT
B2: binds (SARS-CoV-2 NP).

B3: Ebola NP aptamer (ssDNA)
DNA: GATGTGAGTGACGTGGATCGAGCGGATGTGAAGGCTGAAAGTGGCTTTGGGCGGTCGTAAGTGTCACAGAGCATGCAACAAGACC
B3: binds (Ebola NP).
